According to patent US20150119475:

Target: Snail protein (SNAI1/Snail, expressed as GST fusion in E. coli, GST moiety cleaved with thrombin) (UniProt O95863)
Sequence (O95863 whole entry, the tested form may be a part): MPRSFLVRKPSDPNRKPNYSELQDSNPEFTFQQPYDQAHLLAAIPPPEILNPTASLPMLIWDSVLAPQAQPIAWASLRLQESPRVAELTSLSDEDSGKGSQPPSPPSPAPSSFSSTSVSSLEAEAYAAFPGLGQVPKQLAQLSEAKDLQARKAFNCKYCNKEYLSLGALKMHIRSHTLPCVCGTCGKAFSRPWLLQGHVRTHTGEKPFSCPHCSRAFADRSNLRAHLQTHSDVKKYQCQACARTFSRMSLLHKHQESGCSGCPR

## recombinant Akt3 (ProQinase GmbH)
  in vitro kinase assay with 32P-ATP, detected by autoradiography: Akt1 and Akt3 kinases are able to directly phosphorylate Snail protein
